For one molecule, pKd results are on record in US20250339569A1 (3B PHARMACEUTICALS, published 2025).

Starred links: 1 amine or outer side, 2 acyl side, 3 side chain; linkers in the order of their positions; H or OH if unused. Positions of bridges follow the written chain, without caps; N, C: chain ends. Non-standard residues stand in square brackets, D forms with d. Primed or numbered codes have the meaning given here. *: point of attachment. Aph(SaPr)(3) = 4-amino-L-phenylalanine with ring amino acylated by 3-sulfamoylpropanoic acid, NS(=O)(=O)CCC(=O)Nc1ccc(C[C@H](N[*:1])C(=O)[*:2])cc1; DOTA = O=C(O)CN1CCN(CC(=O)O)CCN(CC(=O)*)CCN(CC(=O)O)CC1; mXylylene = c1cc(C[*:1])cc(C[*:2])c1

For the assay, the target named is T1, canine carbonic anhydrase 9 (CAIX) (dog).
T1 construct: Expressed on transfected CHO cells (CHO-dogCA9); also called dgCAIX; dog CAIX
T1 sequence (chain, as listed by the source limits assumed): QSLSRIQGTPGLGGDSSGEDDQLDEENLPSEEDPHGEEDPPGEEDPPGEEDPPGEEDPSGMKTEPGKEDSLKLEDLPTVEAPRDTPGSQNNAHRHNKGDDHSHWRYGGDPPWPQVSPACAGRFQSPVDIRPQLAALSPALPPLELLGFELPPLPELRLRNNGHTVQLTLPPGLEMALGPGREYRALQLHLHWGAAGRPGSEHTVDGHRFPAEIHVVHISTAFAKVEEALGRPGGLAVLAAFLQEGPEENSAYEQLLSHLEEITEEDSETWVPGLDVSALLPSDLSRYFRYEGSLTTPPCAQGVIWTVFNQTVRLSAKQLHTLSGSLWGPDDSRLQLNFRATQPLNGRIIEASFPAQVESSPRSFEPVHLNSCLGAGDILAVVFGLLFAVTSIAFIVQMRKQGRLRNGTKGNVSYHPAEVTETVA
The assay is described as follows: radioligand saturation binding on CHO-dgCAIX cells, 8 h at 37 °C, experiment iii.

Method: The radioligand saturation binding on CHO-huCAIX and dgCAIX was determined as follows. […] To determine total binding, 700 μL of binding medium and 100 μL of the radioligand dilutions were added to the wells in triplicates. […] The plates were incubated for 8 h at 37° C. under standard cell culture conditions (5% CO2). At the end of the incubation time the plates were placed on ice while aspirating the radioligand solutions. Aliquots of the 20 nM supernatants were transferred to HPLC vials for analysis of radioligand stability over the incubation time. Subsequently, the cells were washed with ice-cold PBS (0.5 mL, 1 mL, 1 mL). 300 μL of RIPA buffer containing PIC was added to each well and the plates were placed on a shaker for 10 min at ambient temperature. 200 μL of the cell lysate of each well was transferred to gamma-counting tubes. Their associated radioactivity was counted using a gamma counter and normalized to the measured protein concentration of each well (see chapter 6.3.7 BCA protein assay). An aliquot of each radioligand dilution was included in the gamma counter measurements to allow for determination of the actual radioligand concentrations in the dilution series.

B1: [^111In]In-DPI-4501 (peptide)
peptide: {DOTA}-QCE[dP]D[Aph(SaPr)(3)]LTWSC-NH2
modifications: linker 2-11 via mXylylene; also: 111In complexed by DOTA
notes: Cyclic peptide with chelator DOTA complexing In-111; X stands for the non-natural residue Aph(SaPr); also called ^111In-DOTA-Q-[C(3MeBn)-EPD-Aph(SaPr)-LTWSC]-NH2; ^111In-3BP-4501
Turning to B1, the pKd was 9.6 -log10(M).
